The source of these data is article PMC13396810, “HELZ is a RNA-DNA helicase that resolves R loops to facilitate homologous recombination repair”.

The target in data set [1] is HELZ K674N (insect-purified) (human, UniProt P42694 1-1942, K674N). The data set is described as follows: EMSA; no ATP; 5 nM substrate; comparable to WT; EMSA: 10 mM Tris-HCl pH 7.5, 60 mM KCl, 100 ng/ul BSA, 2 U/ul RNaseIN, 1 mM DTT, 30 min on ice, 5% native TAE gel 4 C; pull-down: 10 mM Tris-HCl pH 7.5, 100 mM. The following applies: protein: recombinant; label: Cy5 at 5' end of RNA; 30 bp hybrid S1[16-45] with S2[31-60]; 15 nt 5' RNA overhang; 30 nt 5' and 30 nt 3' DNA overhangs.
Sequence of HELZ K674N (insect-purified) (P42694 whole entry K674N): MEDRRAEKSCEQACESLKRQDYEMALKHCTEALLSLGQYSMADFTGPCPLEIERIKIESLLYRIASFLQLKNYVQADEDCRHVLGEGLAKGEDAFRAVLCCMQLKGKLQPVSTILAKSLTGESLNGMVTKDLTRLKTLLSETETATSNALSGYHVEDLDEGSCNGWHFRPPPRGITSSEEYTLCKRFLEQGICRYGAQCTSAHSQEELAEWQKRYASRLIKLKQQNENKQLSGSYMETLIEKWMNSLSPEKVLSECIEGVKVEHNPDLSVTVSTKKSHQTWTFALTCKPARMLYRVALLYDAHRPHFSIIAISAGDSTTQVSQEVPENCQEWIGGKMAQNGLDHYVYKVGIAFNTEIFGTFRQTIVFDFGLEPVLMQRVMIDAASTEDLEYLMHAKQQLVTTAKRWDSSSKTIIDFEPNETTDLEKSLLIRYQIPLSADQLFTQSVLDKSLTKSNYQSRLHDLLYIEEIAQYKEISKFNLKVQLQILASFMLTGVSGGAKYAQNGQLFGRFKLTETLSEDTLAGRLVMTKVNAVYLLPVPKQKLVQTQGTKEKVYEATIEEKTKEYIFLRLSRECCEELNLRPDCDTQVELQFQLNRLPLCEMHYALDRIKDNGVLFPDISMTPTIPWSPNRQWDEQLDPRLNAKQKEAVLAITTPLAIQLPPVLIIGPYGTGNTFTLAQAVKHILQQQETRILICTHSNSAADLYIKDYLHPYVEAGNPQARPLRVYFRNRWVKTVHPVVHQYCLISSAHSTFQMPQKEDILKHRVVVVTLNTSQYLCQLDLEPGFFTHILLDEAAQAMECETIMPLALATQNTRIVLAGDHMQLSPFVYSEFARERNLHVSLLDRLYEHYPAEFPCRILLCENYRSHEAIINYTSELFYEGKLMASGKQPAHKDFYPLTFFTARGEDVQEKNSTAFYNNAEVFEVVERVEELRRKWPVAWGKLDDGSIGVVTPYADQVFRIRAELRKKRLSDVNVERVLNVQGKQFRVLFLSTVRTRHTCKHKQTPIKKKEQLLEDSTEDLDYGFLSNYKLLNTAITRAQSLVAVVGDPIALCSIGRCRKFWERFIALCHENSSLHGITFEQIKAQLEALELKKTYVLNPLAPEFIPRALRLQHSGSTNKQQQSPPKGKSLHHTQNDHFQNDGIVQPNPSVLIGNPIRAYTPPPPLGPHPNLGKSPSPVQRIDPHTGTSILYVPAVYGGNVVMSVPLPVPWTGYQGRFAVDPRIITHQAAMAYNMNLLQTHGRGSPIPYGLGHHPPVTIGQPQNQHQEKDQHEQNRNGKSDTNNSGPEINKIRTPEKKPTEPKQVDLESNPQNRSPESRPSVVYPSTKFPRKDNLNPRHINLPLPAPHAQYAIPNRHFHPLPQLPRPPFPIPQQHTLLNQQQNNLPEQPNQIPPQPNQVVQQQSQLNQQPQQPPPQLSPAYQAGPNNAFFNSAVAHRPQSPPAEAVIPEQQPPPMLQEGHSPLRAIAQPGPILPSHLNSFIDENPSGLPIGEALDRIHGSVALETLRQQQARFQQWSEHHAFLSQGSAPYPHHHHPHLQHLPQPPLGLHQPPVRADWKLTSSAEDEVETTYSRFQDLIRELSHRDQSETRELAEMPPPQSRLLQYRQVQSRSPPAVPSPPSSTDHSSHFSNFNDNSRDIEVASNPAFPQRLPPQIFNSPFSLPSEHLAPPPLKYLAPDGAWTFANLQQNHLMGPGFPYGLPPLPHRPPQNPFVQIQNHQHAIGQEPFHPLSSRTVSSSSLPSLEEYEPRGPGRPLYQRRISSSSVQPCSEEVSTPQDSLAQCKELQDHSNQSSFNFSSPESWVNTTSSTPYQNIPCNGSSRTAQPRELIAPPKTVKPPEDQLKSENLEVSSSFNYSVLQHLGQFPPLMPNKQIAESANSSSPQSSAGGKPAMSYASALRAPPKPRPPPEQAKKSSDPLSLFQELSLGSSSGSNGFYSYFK

Data set [2] deals with HELZ WT (insect-purified) (human, UniProt P42694 1-1942). The data set is described as follows: EMSA; no ATP; 5 nM substrate; EMSA: 10 mM Tris-HCl pH 7.5, 60 mM KCl, 100 ng/ul BSA, 2 U/ul RNaseIN, 1 mM DTT, 30 min on ice, 5% native TAE gel 4 C; pull-down: 10 mM Tris-HCl pH 7.5, 100 mM. The following applies: protein: recombinant; label: Cy5 at 5' end of RNA; 30 bp hybrid S1[16-45] with S2[31-60]; 15 nt 5' RNA overhang; 30 nt 5' and 30 nt 3' DNA overhangs.
Sequence of HELZ WT (insect-purified) (P42694 whole entry): as the sequence (P42694 whole entry K674N) above, with N674K counted along it

B1: RNA/DNA hybrid with 5' ssRNA overhang (EMSA) (DNA:RNA)
RNA: UCGUAGCUCGGGAGUGCACCAGAUUCAGCAAUUAAGCUCUAAGCC
DNA: GTCACTTGATAAGAGGTCATTTGAATTCATGGCTTAGAGCTTAATTGCTGAATCTGGTGCTGGGATCCAACATGTTTTAAATATGCAATG
Consider B1, for which the binding result in data set [1] and in data set [2] was “binds” throughout.
